# From patent publication US11091546B2, “Optimized PNE-based chimeric receptor T cell switches and uses thereof” (The Scripps Research Institute, priority 2015, dated 2021)
# B1: anti-CLL1 switch A + B: anti-CLL1 Fab switch, N-terminal bivalent (LCNT & HCNT; SEQ ID 102 & 103) (antibody)
# heavy: NYHLENEVARLKKLLVGEAAAKEAAAKADIQLQESGPGLVKPSQSLSLTCSVTGYSITSAYYWNWIRQFPGNKLEWMGYISYDGRNNYNPSLKNRISITRDTSKNQFFLKLNSVTTEDTATYYCAKEGDYDVGNYYAMDYWGQGTSVTVSSARTKGPSVFPLAPSSKSTSGGTAALGCLVKDYFPEPVTVSWNSGALTSGVHTFPAVLQSSGLYSLSSVVTVPSSSLGTQTYICNVNHKPSNTKVDKKVEPKSC
# light: NYHLENEVARLKKLGGGGSENVLTQSPAIMSASPGEKVTMTCRASSNVISSYVHWYQQRSGASPKLWIYSTSNLASGVPARFSGSGSGTSYSLTISSVEAEDAATYYCQQYSGYPLTFGAGTKLELKRAAAAPSVFIFPPSDEQLKSGTASVVCLLNNFYPREAKVQWKVDNALQSGNSQESVTEQDSKDSTYSLSSTLTLSKADYEKHKVYACEVTHQGLSSPVTKSFNRGEC
# modifications: peptide on N-termini; Made in lab - CLL1(1075.7)-HC_NT3 switch antibody polynucleotide; Made in lab - CLL1(1075.7)-LC_NT1 switch antibody polynucleotide
# System: U937 (CLL1+) cells
# Experiment: Cytotoxicity assay, sCAR-T cells + anti-CLL1 switches
# Format: cell-based
# Settings: with short-dimeric CAR
# Description: FIG. 38A illustrates multiple fusion/grafting locations: A=LCNT1 (light chain N terminus version 1), B=HCNT3 (heavy chain N terminus version 3), C=heavy chain C terminus, and D=light chain C terminus). […] Data shown are an average of duplicate samples, and error bars represent SD. Only the NT switches plus the BvCT and By CH1CL1 as references are depicted.
# By utilizing the “universal” anti-peptide sCART cell, multiple switches targeting multiple cancer associated antigens can be rapidly developed. An example of this is the generation of peptide engrafted switches against the AML associated antigen CLL1. A series of 6 plasmids were designed into which commercially synthesized gene-blocks encoding scFv sequences were inserted by gibson phase assembly to generate: Light chain wild type, light chain N-terminal, light chain C-terminal, heavy chain wild type, heavy chain N-terminal and heavy chain C-terminal plasmid constructs. […]
# Another example (see Example 7) of switch SAR was shown with the anti-CLL1 switch derived from the anti-CLL1 antibody clone. […] Using these switches in combination with the three different CAR constructs (long, short and short dimeric) in cytotoxicity assays with the CLL1^+U937 cell line it was determined that N-terminal bivalent switches with the short-dimeric CAR was the most optimal for immunological synapse for the in vitro killing of U937 cells (FIG. 38D). […]
molecule,measurement,value
B1,immunological synapse for in vitro killing,most optimal
